Results from doi:10.1101/2024.05.25.595884 (bioRxiv, 2024).

target: full-length human HER2 with enhanced green fluorescent protein (eGFP) at the C-terminal end (Homo sapiens, UniProt P04626); assay: SPID

| Binder | binding result | Kd [nM] | fold enhancement in affinity compared to the original Trastuzumab [fold] |
| --- | --- | --- | --- |
| Trastuzumab scFab HCDR3 variant clone H3_72 (Fab, V domains shown) VH: EVQLVESGGGLVQPGGSLRLSCAASGFNIKDTYIHWVRQAPGKGLEWVARIYPTNGYTRYADSVKGRFTISADTSKNTAYLQMNSLRAEDTAVYYCSRWRGKGFTAMDYWGQGTLVTVSS VL: not shown | binds | – | – |
| Trastuzumab scFab HCDR3 variant clone H3_29 (Fab, V domains shown) VH: EVQLVESGGGLVQPGGSLRLSCAASGFNIKDTYIHWVRQAPGKGLEWVARIYPTNGYTRYADSVKGRFTISADTSKNTAYLQMNSLRAEDTAVYYCSRWRSIGFYAMDYWGQGTLVTVSS VL: not shown | binds | – | – |
| Trastuzumab scFab HCDR2/HCDR3 cross-combination clone H2/3_03 (Fab, V domains shown) VH: EVQLVESGGGLVQPGGSLRLSCAASGFNIKDTYIHWVRQAPGKGLEWVARIKPANGYTRYADSVKGRFTISADTSKNTAYLQMNSLRAEDTAVYYCSRWRSIGFYAMDYWGQGTLVTVSS VL: not shown | – | < 1 | 6 |
| Trastuzumab scFab HCDR3 variant clone H3_85 (Fab, V domains shown) VH: EVQLVESGGGLVQPGGSLRLSCAASGFNIKDTYIHWVRQAPGKGLEWVARIYPTNGYTRYADSVKGRFTISADTSKNTAYLQMNSLRAEDTAVYYCSRWGRHGFNAMDYWGQGTLVTVSS VL: not shown | binds | – | – |
| Trastuzumab scFab HCDR2 variant IRPVRG (Fab, V domains shown) VH: EVQLVESGGGLVQPGGSLRLSCAASGFNIKDTYIHWVRQAPGKGLEWVARIRPVRGYTRYADSVKGRFTISADTSKNTAYLQMNSLRAEDTAVYYCSRWGGDGFYAMDYWGQGTLVTVSS VL: not shown | – | 2.6 | – |
| Trastuzumab scFab HCDR2/HCDR3 cross-combination clone H2/3_07 (Fab, V domains shown) VH: EVQLVESGGGLVQPGGSLRLSCAASGFNIKDTYIHWVRQAPGKGLEWVARIRPVRGYTRYADSVKGRFTISADTSKNTAYLQMNSLRAEDTAVYYCSRWRSIGFYAMDYWGQGTLVTVSS VL: not shown | – | < 1 | 6 |
| Trastuzumab scFab HCDR3 variant clone H3_77 (Fab, V domains shown) VH: EVQLVESGGGLVQPGGSLRLSCAASGFNIKDTYIHWVRQAPGKGLEWVARIYPTNGYTRYADSVKGRFTISADTSKNTAYLQMNSLRAEDTAVYYCSRWRRKGFYAMDYWGQGTLVTVSS VL: not shown | binds | – | – |
